The record followed here is PMC4537280, “ApiAP2 Factors as Candidate Regulators of Stochastic Commitment to Merozoite Production in Theileria annulata”.

Details in all cases: protein: recombinant; tags: N-terminal GST (pGEX5x-2); label: 5' biotin on strand 1; blunt
Data set [1] deals with GST-TA11145D (TaAP2.me1 AP2 domain) (Theileria annulata (strain Ankara, …, UniProt Q4U8H9)). In words: EMSA; LightShift chemiluminescent EMSA kit components plus 1 ul 50% glycerol and 1 ul 1% NP40, about 0.7 ug GST fusion protein, 20 fmol biotinylated probe; competitor preincubation on ice; 4% polyacrylamide gel, 100 V, 4 C; pH and salt of binding not stated (oligo annealing in 20 mM Tris-HCl pH 7.6, 50 mM NaCl).

In data set [2] the target is T1, GST-TA16485D (TaAP2.me3 AP2 domain) (Theileria annulata (strain Ankara, …, UniProt Q4UIX2)).
T1 sequence: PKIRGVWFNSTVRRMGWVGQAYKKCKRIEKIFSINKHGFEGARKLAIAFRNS
The description is as above.

In data set [3] the target is T2, GST-TA12015D (TaAP2.me2 AP2 domain) (Theileria annulata (strain Ankara, …, UniProt Q4UDT1)).
T2 sequence: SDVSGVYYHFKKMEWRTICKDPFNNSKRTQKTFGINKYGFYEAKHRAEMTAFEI
In words: EMSA; 0.6-1.6 ug protein; LightShift chemiluminescent EMSA kit components plus 1 ul 50% glycerol and 1 ul 1% NP40, about 0.7 ug GST fusion protein, 20 fmol biotinylated probe; competitor preincubation on ice; 4% polyacrylamide gel, 100 V, 4 C; pH and salt of binding not stated (oligo annealing in 20 mM Tris-HCl pH 7.6, 50 mM NaCl).

The target in data set [4] is GST-TA13515D (TaAP2.g AP2 domain) (Theileria annulata (strain Ankara, …, UniProt Q4UEK3)). Kind of data set: EMSA; LightShift chemiluminescent EMSA kit components plus 1 ul 50% glycerol and 1 ul 1% NP40, about 0.7 ug GST fusion protein, 20 fmol biotinylated probe; competitor preincubation on ice; 4% polyacrylamide gel, 100 V, 4 C; pH and salt of binding not stated (oligo annealing in 20 mM Tris-HCl pH 7.6, 50 mM NaCl). In general terms: Mobility shift assays separate free from complexed probe on a gel.

B1: Bio(A)CACAC(A)-MUT (dsDNA)
DNA 1: GATATAGAATTATGCAGAATAT
DNA 2: ATATTCTGCATAATTCTATATC
B1: the binding result in data set [1] is on record as “no binding”.

B2: Bio-2x(A)CACAC(A) (dsDNA)
DNA 1: GATACACACTTATGCACACACA
DNA 2: TGTGTGTGCATAAGTGTGTATC
As to B2, in data set [1], the binding result is listed as “binds”.

B3: Bio-TCTATA / C-box probe (dsDNA)
DNA 1: ATTGTTAATTCCCCATCCAGATCTATAAAA
DNA 2: TTTTATAGATCTGGATGGGGAATTAACAAT
Turning to B3, the values for the binding result in data set [2] and in data set [3] were “binds” and “no binding”, respectively.

B4: Bio-GTGTAC (dsDNA)
DNA 1: AATATTATAATAGTCGTAGCCATCAATGTGTACACATGGTAATATAGATTTTCGTTTATATT
DNA 2: AATATAAACGAAAATCTATATTACCATGTGTACACATTGATGGCTACGACTATTATAATATT
For B4, the binding result in data set [4] is listed as “binds”.

B5: Bio-GTGTAC-MUT (dsDNA)
DNA 1: AATATTATAATAGTCGTAGCCATCAATATATAAAAATGGTAATATAGATTTTCGTTTATATT
DNA 2: AATATAAACGAAAATCTATATTACCATTTTTATATATTGATGGCTACGACTATTATAATATT
Consider B5, for which, in data set [4], the binding result was “no binding”.
